Reference: the supplement of paper PMC9732359
± gives the uncertainty stated by the source.

Experiment: protein stability index of a GFP-peptide fusion (yeast GPS) (PSI 1-4); higher = more stable; sorted into four equal gates, so the index is relative within each strain
Method in brief: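 Plasmids in a pooled yeast library fused tiled 17-residue yeast protein peptides downstream of GFP and also expressed Cherry. Mid-log cultures grown without leucine were sorted into four equal gates by GFP/Cherry fluorescence ratio. Each gate's plasmids were PCR-amplified and Illumina-sequenced, and reads were matched to strains by barcodes. The protein stability index is derived by multiplying each gate's read frequency by its gate number and summing the results.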

Sequence | protein stability index (doa10∆) | protein stability index (pdr5∆) | protein stability index (san1∆) | protein stability index (ubr1∆)
EKPAPVRTHMRNMIIVP [RPS15] | 1.13 ± 0.064 | 1.17 ± 0.081 | 1.21 ± 0.19 | 1.14 ± 0.095
EKQTPNKKDKKKEEEEQ [RPN1] | 3 ± 0.059 | 2.98 ± 0.092 | 3.01 ± 0.042 | 3.16 ± 0.058
EKRATSPLLESDSIEKI [PUP2] | 3.12 ± 0.087 | 3.07 ± 0.077 | 3.29 ± 0.09 | 3.23 ± 0.068
EKVFTQGLNILEWLENP [FAS1] | 3.18 ± 0.12 | 2.98 ± 0.081 | 3.44 ± 0.054 | 3.17 ± 0.046
EKVNNNATLTPNDSNDE [SWI1] | 3.26 ± 0.07 | 3.14 ± 0.057 | 3.11 ± 0.063 | 3.16 ± 0.047
EKVTRYNRHKLQELIVN [RPO31] | 1.74 ± 0.046 | 1.44 ± 0.043 | 1.82 ± 0.058 | 1.44 ± 0.041
EKYEDEDEEKILDNTEN [DSN1] | 3.52 ± 0.15 | 3.16 ± 0.1 | 3.01 ± 0.26 | 3.21 ± 0.091
EKYGKQVYDLLKRFPKM [BRR2] |  |  | 2.99 ± 0.19 | 3.31 ± 0.14
ELAINLIRFDESITKAM [SMC2] | 2.59 ± 0.062 | 2.78 ± 0.08 | 2.62 ± 0.09 | 2.65 ± 0.071
ELDEHTTQIDLFRIFSM [BRR2] | 2.25 ± 0.1 | 1.56 ± 0.1 | 1.61 ± 0.15 | 1.22 ± 0.059
ELGEKKNEKLKFQETLL [ISW2] | 2.86 ± 0.096 | 2.7 ± 0.1 | 2.85 ± 0.11 | 2.88 ± 0.12
ELKDLETQVEVEKNEIG [NNF1] | 3.05 ± 0.19 | 3.24 ± 0.11 | 2.97 ± 0.17 | 3.33 ± 0.13
ELKINLPLTEHKSPNLS [SRB4] | 2.93 ± 0.077 | 3.17 ± 0.051 | 2.87 ± 0.041 | 2.98 ± 0.058
ELKIRSKTENVRRLEAQ [RPT6] | 2.5 ± 0.16 | 2.53 ± 0.12 | 1.58 ± 0.27 | 2.53 ± 0.095
ELKPVSLDNKTLDDLVT [YJL041W/NSP1] | 3.12 ± 0.057 | 3.04 ± 0.063 | 3.09 ± 0.067 | 3.19 ± 0.042
ELLAYQFASPVRWIETQ [FAS2] | 1.77 ± 0.021 | 1.86 ± 0.019 | 1.92 ± 0.027 | 1.728 ± 0.016
ELLEERFQDSNPYVRTK [YCS4] | 1.48 ± 0.037 | 1.76 ± 0.11 | 2.82 ± 0.076 | 2.8 ± 0.096
ELLRLANEQLKLFNRIV [CSN12] | 2.3 ± 0.069 | 2.55 ± 0.082 | 1.64 ± 0.085 | 1.92 ± 0.07
ELLSKYKEQIIQGFYWA [SNU114] | 2.99 ± 0.073 | 2.4 ± 0.067 | 2.47 ± 0.077 | 2.17 ± 0.085
ELMKLDGTEYVLSSVRE [MED6] | 3.36 ± 0.083 | 3.27 ± 0.08 | 3.16 ± 0.048 | 3.15 ± 0.05
ELPKKLLNLPPFQVSSF [SRB8] | 1.77 ± 0.039 | 1.85 ± 0.034 | 1.9 ± 0.055 | 1.78 ± 0.041
ELRFPSPTPIQRITIPN [PRP28] | 2.02 ± 0.093 | 2.19 ± 0.071 | 1.85 ± 0.081 | 2.06 ± 0.058
ELSRIENEVENINATNT [YCS4] | 3.52 ± 0.16 | 3.11 ± 0.11 | 3.23 ± 0.053 | 3.14 ± 0.11
ELTAQGYDPALLNILSG [RPN2] | 2.76 ± 0.091 | 3.06 ± 0.12 | 2.58 ± 0.071 | 2.89 ± 0.079
ELVTISWVQPRIISGDQ [RPN9] | 2.44 ± 0.12 | 1.96 ± 0.087 | 2.27 ± 0.12 | 2.98 ± 0.1
EMGYLIQISKLHYTPIE [RPC82] | 1.51 ± 0.063 | 2.06 ± 0.081 | 1.95 ± 0.13 | 1.47 ± 0.055
EMKTQAAELQEKPLTPL [SNF6] | 2.97 ± 0.19 | 3.14 ± 0.12 | 2.8 ± 0.088 | 2.89 ± 0.087

Sequence | protein stability index (doa10∆) | protein stability index (pdr5∆) | protein stability index (san1∆) | protein stability index (ubr1∆)
EMMKMMQDPQMQQMAKQ [SRP54] | 3.07 ± 0.057 | 2.76 ± 0.067 | 2.77 ± 0.039 | 2.67 ± 0.038
ENAYDNPLADAEEALEP [PRE4] | 3.1 ± 0.086 | 3 ± 0.082 | 3.1 ± 0.063 | 3.13 ± 0.057
ENDHERGFFHLNEALLQ [CSN12] | 3.08 ± 0.075 | 2.91 ± 0.062 | 3.28 ± 0.09 | 3.06 ± 0.082
ENDLSFALMRYYDRKEE [RRI2] | 3.12 ± 0.13 | 2.88 ± 0.12 | 2.97 ± 0.071 | 2.98 ± 0.073
ENEMIKPMNKGQHKNNT [SWP82] | 3.36 ± 0.081 | 3.19 ± 0.12 | 3.33 ± 0.09 | 3.26 ± 0.049
ENFLKEVFQLRIFVKEI [GAL11] | 1.81 ± 0.073 | 1.69 ± 0.058 | 1.95 ± 0.063 | 1.52 ± 0.057
ENGDYAACEKLLPPIKI [RPN12] |  |  | 1.89 ± 0.21 | 
ENGLQLSDNAKTLHSQM [RPC34] | 3.11 ± 0.18 | 3.27 ± 0.096 | 3.27 ± 0.07 | 3.13 ± 0.053
ENGRRINELTLLVQKRF [RPS3] | 3.51 ± 0.27 | 3.42 ± 0.11 | 3.55 ± 0.13 | 3.32 ± 0.12
ENIAQMKPKAEKESDDG [SMC4] | 3.1 ± 0.26 | 3.16 ± 0.23 |  | 3.74 ± 0.2
ENMWPFSYQEVEFKLPK [CDC53] | 1.83 ± 0.048 | 2.19 ± 0.058 | 1.34 ± 0.076 | 2.47 ± 0.035
ENNSDSNSNNNGNKDSS [SWI1] | 2.95 ± 0.089 | 3.12 ± 0.076 | 3.05 ± 0.06 | 3.04 ± 0.068
ENPTDNFIIWINSIDTT [GRR1] | 2.44 ± 0.045 | 2.51 ± 0.053 | 2.61 ± 0.049 | 2.74 ± 0.048
ENSEPPALESSPVTGDN [SNF2] | 3.3 ± 0.075 | 3.24 ± 0.073 | 3.19 ± 0.067 | 3.22 ± 0.062
ENTKDNLVKEKEALQNN [SMC1] | 3.51 ± 0.12 | 3.26 ± 0.13 | 3.45 ± 0.13 | 
ENYDDTELRQLFQENDD [DSN1] | 2.23 ± 0.072 | 2.63 ± 0.077 | 2.6 ± 0.096 | 2.55 ± 0.13
EPDLESQISKAEMEADS [SMC4] | 2.89 ± 0.078 | 3.39 ± 0.18 | 3.43 ± 0.069 | 2.55 ± 0.17
EPDREKIKLLTQATSED [RPC19] | 2.95 ± 0.2 | 3.19 ± 0.11 | 2.73 ± 0.12 | 3.28 ± 0.11
EPELRVLSTEEILNIFK [RPO21] | 3.43 ± 0.22 | 3.45 ± 0.17 | 3.51 ± 0.084 | 3.55 ± 0.23
EPIRFLPNQFPLKIHRT [SWI1] | 1.66 ± 0.06 | 1.81 ± 0.075 | 1.59 ± 0.12 | 1.73 ± 0.07
EPLAIALSMGKSSAFVI [ARP7] | 1.48 ± 0.076 | 2.02 ± 0.071 | 1.67 ± 0.1 | 1.77 ± 0.089
EPNSAKKIRFLQLIIFL [RGR1] | 1.66 ± 0.11 | 2.42 ± 0.1 | 2.89 ± 0.3 | 
EPPAGVALPPGSNYNPY [CYT1] | 2.77 ± 0.12 | 3.13 ± 0.076 | 2.83 ± 0.12 | 3.15 ± 0.047
EQEDIIEKTESVDKKVD [SWI3] | 3.04 ± 0.07 | 3.02 ± 0.081 | 3.14 ± 0.041 | 2.99 ± 0.094
EQENMRKVREQEELKKR [MED2] |  | 3.13 ± 0.19 |  | 3.56 ± 0.11
EQKWLIYDKKDHKYVCT [SRB8] | 2.64 ± 0.29 | 2.33 ± 0.17 |  | 3.23 ± 0.22
